Test results reported in patent US20080193450A1 (ISTITUTO SUPERIORE DI SANITA, published 2008).

B1: ADR4-5 (other)
chain: EVQLLESGGGLVQPGGSLRLSCAASGDRISSEFMGWVRQAPGKGLEWVSAIYKPNGSTYYADSVKGRFTISRDNSKNTLYLQMNSLRAEDTAVYYCARGRARRTESTYQLRYWGQGTLVTVSS
B2: ADR4-9 (other)
chain: EVQLLESGGGLVQPGGSLRLSCAASGVRLSHQVMGWVRQAPGKGLEWVSAIRSSDGSTYYADSVKGRFTISRDNSKNTLYLQMNSLRAEDTAVYYCAGWRSAKSQMHYWGQGTLVTVSS
B3: ADR4-11 (other)
chain: EVQLLESGGGLVQPGGSLRLSCAASGVIFTDQTMGWVRQAPGKGLEWVSAIKTRDGSTYYADSVKGRFTISRDNSKNTLYLQMNSLRAEDTAVYYCARFLRPNASRGSAREAQIHSWGQGTLVTVSS
B4: ADR4-7 (other)
chain: EVQLLESGGGLVQPGGSLRLSCAASGYSVTYQNMAWVRQAPGKGLEWVSTITVPNGSTYYADSVKGRFTISRDNSKNTLYLQMNSLRAEDTAVYYCAGLGEVLRDGNANVQFWGQGTLVTVSS
B5: ADR4-8 (other)
chain: EVQLLESGGGLVQPGGSLRLSCAASGFSLSYKVMGWVRQAPGKGLEWVSAINRENGSTYYADSVKGRFTISRDNSKNTLYLQMNSLRAEDTAVYYCAGFARRGAPHSASVEFWGQGTLVTVSS
B6: ADR4-6 (other)
chain: EVQLLESGGGLVQPGGSLRLSCAASGFRVSNYDLTWVRQAPGKGLEWVSTISATNGSTYYADSVKGRFTISRDNSKNTLYLQMNSLRAEDTAVYYCAAVTWWLLRHNDNLGFWGQGTLVTVSS
B7: ADR4-12 (other)
chain: EVQLLESGGGLVQPGGSLRLSCAASGDTVSSKAMAWVRQAPGKGLEWVSGIFIPNGSTYYADSVKGRFTISRDNSKNTLYLQMNSLRAEDTAVYYCAAKQRAVLSRWGSSTEFGSWGQGTLVTVSS
B8: ADR4-10 (other)
chain: EVQLLESGGGLVQPGGSLRLSCAASGVSVSAYTMSWVRQAPGKGLEWVSAILKKNGSTYYADSVKGRFTISRDNSKNTLYLQMNSLRAEDTAVYYCAGRPSVTFGGPGKRYDYHFQYWGQGTLVTVSS
B9: ADR4-13 (other)
chain: EVQLLESGGGLVQPGGSLRLSCAASGFSISYKNMAWVRQAPGKGLEWVSAIKAANGSTYYADSVKGRFTISRDNSKNTLYLQMNSLRAEDTAVYYCATGSQKKRTYTFDFWGQGTLVTVSS
B10: ADR4-4 (other)
chain: EVQLLESGGGLVQPGGSLRLSCAASGFTFLDYQMSWVRQAPGKGLEWVSGISRSGNKTKYADSVKGRFTISRDNSKNTLYLQMNSLRAEDTAVYYCAKWAGLNRHDFDYWGQGTLVTVSS
B11: ADR4-3 (other)
chain: EVQLLESGGGLVQPGGSLRLSCAASGFTFAQYRMAWVRQAPGKGLEWVSQINAQGTQTGYADSVKGRFTISRDNSKNTLYLQMNSLRAEDTAVYYCAKWVGGARYTFDYWGQGTLVTVSS

target: native, highly purified SAP2 preparation (Candida albicans, UniProt P0CS83 57-398); experiment: cell-based or functional assay
Sequence (P0CS83 57-398 limits assumed): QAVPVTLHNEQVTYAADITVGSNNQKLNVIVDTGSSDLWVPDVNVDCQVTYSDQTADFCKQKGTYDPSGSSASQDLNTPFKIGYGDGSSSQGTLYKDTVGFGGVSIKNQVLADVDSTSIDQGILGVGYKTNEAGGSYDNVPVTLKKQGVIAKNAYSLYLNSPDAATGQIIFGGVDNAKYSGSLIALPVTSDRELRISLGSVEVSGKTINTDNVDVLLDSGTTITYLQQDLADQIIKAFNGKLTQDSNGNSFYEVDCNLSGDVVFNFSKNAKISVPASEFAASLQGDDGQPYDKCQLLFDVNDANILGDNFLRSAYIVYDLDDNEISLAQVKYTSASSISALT

| Molecule | % Inhibition (BSA degradation, proteinase enzyme assay) | ΔOD/ml/min (BSA degradation, proteinase enzyme assay) |
| --- | --- | --- |
| pepstatin A (peptide) | 100% | 0.36 ΔOD/ml/min |
| B1 | 0% | 1 ΔOD/ml/min |
| B2 | 5% | 0.93 ΔOD/ml/min |
| B3 | 29% | 0.8 ΔOD/ml/min |
| B4 | 61% | 0.7 ΔOD/ml/min |
| B5 | 0% | 1 ΔOD/ml/min |
| B6 | 78% | 0.5 ΔOD/ml/min |
| B7 | 60% | 0.6 ΔOD/ml/min |
| B8 | 13% | 0.83 ΔOD/ml/min |
| B9 | 82% | 0.46 ΔOD/ml/min |
| B10 | 32% | 0.76 ΔOD/ml/min |
| B11 | 40% | 0.66 ΔOD/ml/min |
